These results are taken from US7507716B2, “Method for treating pain with prolactin antagonists” (Board of Regents, The University of Texas System, priority 2005, dated 2009).

The subject of test [1] is PRL mRNA. Kind of test: Real-time RT-PCR of PRL mRNA in trigeminal ganglia. It is filed as in vivo, rat. The source says: The S.A.M. and GeneSpring 5.1 analyses identified 18 genes whose expression increased and 3 genes whose expression decreased. […] The expression profile of genes selected using the microarray screen was confirmed by real-time RT-PCR. Validated primers were used for each gene and expression was normalized to the housekeeping gene 18S. Data are presented as mean±SEM (n=5/group, **=p<0.01 and ***=p<0.001 versus respective vehicle control; two-tailed unpaired T test). […] For this reason, PRL was selected for further study as a candidate therapeutic target for female-biased pain disorders.
Reactions were performed using primers specific for PRL gene and the internal control (18S). Data were normalized to the relative amount of OVX (vehicle) PRL mRNA/18S. Data are presented as mean±SEM (n=5/group, **=p<0.01 and ***=p<0.001 vs. PRL mRNA of the OVX/Vehicle group; one-way ANOVA with Bonferroni's post hoc test). […] Moreover, the relative PRL mRNA expression in the TG of intact female rats during proestrous was 78-fold greater (p<0.001). The TG samples collected from these groups were also subjected to Western blot analysis to determine the relative expression of PRL protein. […] The results obtained from these experiments were quantified as described in the METHODS section. […] The specificity of anti-PRL antibodies was evaluated by a use of the blocking peptide corresponding to the epitope of PRL. Pre-absorption of anti-PRL antibodies with the blocking peptide nearly eliminated the PRL-specific band (FIGS. 2B, 2C).
RNA isolation: Harvested TG tissue from OVX (treated with vehicle or estradiol) or intact proestrous female rats were immediately frozen in liquid nitrogen and ground in a pre-chilled mortar. The ground tissue was used to isolate total RNA by the guanidinium thiocyanate method as described previously (Chomczynski and Sacchi, 1987). […] Additional RNA sample aliquots were used as template for the quantitative real time RT-PCR experiments.
Quantitative Real Time RT-PCR (qRT-PCR): Total RNA (100 ng) was used as template in a one-step RT-PCR protocol. […]
For orientation: In qPCR the cycle at which signal appears reflects the starting amount.

Test [2] relates to TG neurons. Nature of the test: Patch clamp, capsaicin-induced currents (Icap). It is filed as cell-based, rat. How it is done:
Since application of PRL rapidly increases capsaicin-induced calcium accumulation and neuropeptide release, the role of PRL in modulating capsaicin-induced currents (Icap) was examined. TRPV1 desensitization of cultured TG neurons was induced through the repeated application of 100 nM capsaicin to the cultures (Vellani et al., 2001; Bonnington and McNaughton, 2003). The sub-maximal concentration of capsaicin used was effective in inducing desensitization and permitted the investigation PRL-evoked re-sensitization or further sensitization of TRPV1. […] Data are presented as mean±SEM of PRL-treated ΔIcap (3rd Icap-2^ndIcap) normalized to vehicle treated ΔIcap, (n=8-12/group, *=p<0.05 and **=p<0.01; two-way ANOVA). […] Acutely dissociated TG neurons from female rats were locally pretreated with vehicle or PRL (40 nM) for 60 sec, washed for 60 sec and subjected to a single capsaicin pulse (40 sec, 0.1 nM-5 μM). Data are shown as mean±SEM (n=12-20/group, *=p<0.05 and ***=p<0.001 vehicle vs. PRL; two-way ANOVA). FIGS. 5C and 5D depict representative traces of Icap recordings from intact (FIG. 5C) and OVX (FIG. 5D) female rat TG neurons. Concentration of applied CAP and PRL are indicated. The duration CAP and PRL treatment was 30 sec and 60 sec, respectively. The magnitude of the second capsaicin-evoked inward currents (Icap) peak was subtracted from the third Icap peak to calculate the difference (ΔIcap). Data were normalized to the vehicle treated ΔIcap.
Patch Clamp Electrophysiology: All recordings were performed in whole-cell voltage-clamp (Vh=−60 mV) configuration. Recordings were acquired at 22-24° C. from the somata of neurons (15-45 pF) using an Axopatch200B amplifier and pCLAMP9.0 software (Axon Instruments, Union City, Calif.). Data were filtered at 0.5 kHz and sampled at 2 kHz. Borosilicate pipettes (Sutter, Novato, Calif.) were polished to resistances of 3-5 MΩ in pipette solution. Access resistance was compensated (40-80%) to 7-10 MΩ values when appropriate. Cell diameters were calculated using d=√[100*Cm/π], where d (μm) is cell diameter and Cm (pF) is membrane capacitance.
Standard external solution (SES) had the composition as described above. […] Drugs were applied using a fast, computer controlled pressure-driven 8-channel system (ValveLink8; AutoMate Scientific, San Francisco, Calif.).
FIG. 11B summarizes the effect of adding rhPRL on Icap of cultured TG neurons from male, female and OVX female rats. Number of recorded neurons and neurons in which effects were observed are indicated above the bars. The recordings were performed in whole-cell voltage clamp c(Vh=−60 mV) configuration. Solutions are SES and SIS.
A general note: In patch-clamp work, channel activity is measured electrically.

Some results are limits rather than exact numbers.

As to `C[C@]12CC[C@@H]3c4ccc(O)cc4CC[C@H]3[C@@H]1CC[C@@H]2O` [estradiol, 17-β-estradiol], the “PRL mRNA estradiol responsiveness in TG neurons” value in test [1] (OVX rats undergoing estradiol replacement, summary statement) is reported as over 40 fold. Further, the “increase in PRL mRNA expression in TG vs OVX control rats” value in test [1] (OVX rats with estradiol replacement 80 μg/kg/day×10 days, normalized to 18S, FIG. 2A) is reported as “approximately 50 fold”. Moreover, the “increase in PRL mRNA expression in response to estradiol” value in test [1] (TG of OVX rats, 80 μg/kg/day for 10 days vs vehicle, normalized to 18S, FIG. 1) came to 48 fold.

B1: PRL: Ovine PRL [oPRL-21, BIO] provided by NHPP; prolactin polypeptide hormone (protein, UniProt P01240 31-229, looked up)
Prolactin: TPVCPNGPGNCQVSLRDLFDRAVMVSHYIHNLSSEMFNEFDKRYAQGKGFITMALNSCHTSSLPTPEDKEQAQQTHHEVLMSLILGLLRSWNDPLYHLVTEVRGMKGVPDAILSRAIEIEEENKRLLEGMEMIFGQVIPGAKETEPYPVWSGLPSLQTKDEDARHSAFYNLLHCLRRDSSKIDTYLKLLNCRIIYNNNC
As a reminder, the EC50 is the concentration at which the effect is half-maximal. Consider B1, for which the “effect of PRL pretreatment on capsaicin potency (Icap)” value in test [2] (PRL 40 nM 60 sec, single capsaicin pulse 0.1 nM-5 μM, female rat TG neurons) is on record as “increased capsaicin potency”. Besides, the “concentration of maximal potentiation of Icap” value in test [2] (TRPV1-desensitized TG neurons from naive female rats, 100 nM capsaicin) came out at 40 nM. In addition, in test [2] (TRPV1-desensitized TG neurons from naive female rats, 100 nM capsaicin, read-out: EC50 of Icap sensitization), the EC50 was 0.27 nM. The “effect on Icap” value in test [2] (rat OVX TG neurons) is recorded as “had no observed effect”.
